Results published in patent publication US20260022364A1, “ERT2 MUTANTS, INDUCIBLE CELL DEATH SYSTEMS, AND USES THEREOF” (Senti Biosciences, Inc., priority 2023, published 2026).
Changes are numbered by the printed parent chain. Numbers in names are those of the source.

What was measured:
[1] = cited from earlier work; for estimated concentration in the brain, tissue, organs, and solid tumors / estimated concentration in the serum: tamoxifen orally 20 mg/day
U87MG: 1066 cells = experiment: Modified ER-LBD validation in U87MG with mCherry reporter; assay type: cell-based; settings: SB01066 reporter
Method: About 16 hours before transduction 100k U87MG: 1066 cells were seeded into 16 wells in 12 well plate format. During transduction, cells in each well were transduced with 100k pg of virus of ERT2 variant constructs. After transduction, cells were split into 50k cells per well in a 24 well plate format, and treated with drug-free media or a range of endoxifen or 4-OHT drug conditions. About two days after treatment of cells with endoxifen or 4-OHT, cells were collected and mCherry reporter expression was quantified by flow cytometry.
Screening of the modified ER-LBD construct library identified a subset of ERT2 variants that were sensitive to endoxifen at 1 nM. Among this subset, 15 variants (Table 19) were validated in U87MG cells for their ability to activate an mCherry reporter (SB01066; FIG. 14B) at a range of concentrations of 0 pM, 10 pM, 50 pM, 100 pM, and 1 nM of endoxifen (FIG. 15A) and 4-OHT (FIG. 15B). Expression of mCherry was quantified about […] after treatment with endoxifen or 4-OHT.
Select ERT2 variants (Table 20) from the previous screens were further tested for sensitivity to endoxifen and 4-OHT, compared to wild-type ERT2. […] Fold activation was calculated by gMFI mCherry levels of each test condition divided by gMFI mCherry levels of U87MG cells transduced with the reporter (SB01066).

[2] = system: U87MG: 1066 reporter cell line; experiment: ERT2 mutant transcriptional switch activity, mCherry reporter; assay type: cell-based; settings: range of endoxifen concentrations
Method: FIG. 26A depicts constructs and experimental methods for evaluating exemplary ERT2 mutant transcriptional switches. U87MG cells were transduced with the mCherry reporter construct SB01066, comprising synthetic promoter comprising a 4×ZF-10 zinc finger binding site (SEQ ID NO: 59) linked to a minimal promoter operably linked to an mCherry encoding sequence. This generated a U87MG: 1066 reporter cell line used for assessing transcriptional switch activity of ERT2 transcriptional switch constructs.
25k U87MG: 1066 reporter transduced line was transduced at a MOI of 1 with various ERT2 transcriptional switch constructs having the following structure: pSFFV: ZF10-1 (zinc finger DNA binding domain, SEQ ID NO: 84)_TCR linker (SEQ ID NO: 86)_p65 (transcriptional activation domain, SEQ ID NO: 64)_[…] linker (SEQ ID NO: 88)_ERT2 domain. The ERT2 mutants included a number of amino acid substitutions in addition to the “WT ERT2” mutations G400V/M543A/L544A/V595A.
The next day, cells were split into no drug or drug titration conditions to evaluate performance at a range of endoxifen and estradiol concentrations. Performance of each ERT2 mutant transcriptional switch was evaluated by their ability to translocate and bind to the zinc finger binding site upstream of mCherry and initiate mCherry expression.
The background normalized ND (0) conditions were divided by the average NV gMFI mCherry value in order to reflect any basal activity seen by each mutant. FIG. 26C depicts induced mCherry expression plotted against basal activity for each of the tested ERT2 transcriptional switch constructs.

[3] = system: U87MG: 2357 reporter cell line; experiment: ERT2 mutant transcriptional switch inducing an IL-12 payload (IL-12p70 ELISA); assay type: cell-based; settings: 72 hours
Method: FIG. 28A depicts constructs and experimental methods for evaluating exemplary ERT2 mutant transcriptional switches for inducing expression of an IL-12 payload. U87MG cells were transduced with construct SB02357, comprising synthetic promoter comprising a 4×ZF-10 zinc finger binding site (SEQ ID NO: 59) linked to a minimal promoter operably linked to an IL-12 encoding sequence. This generated a U87MG: 2357 reporter cell line used for assessing the ability of ERT2 transcriptional switch constructs to activate transcription of the IL-12 payload in a ligand-dependent manner.
25k U87MG: 2357 IL-12 payload transduced line was transduced with MOI of 1 of the ERT2 constructs SB03422, SB06149, SB09626, SB09642, SB09652, and SB09657, which are described in Example 9. […] The next day, cells were split into ND or drug titration conditions to evaluate performance at a range of Endoxifen and concentrations. 72 hours later, supernatant was harvested for quantification of IL-12 by IL-12p70 ELISA. IL-12 levels were read with a spectrophotometer at wavelength 450 nm with wavelength correction to 540 nm according to manufacturer's protocol. A kit-provided standard to calculate detected levels of IL-12 in 100 μL of media harvested from ˜100k cells based on OD.

HEK293T cells [4] = experiment: Time course of ERT2 mutant safety switch activity in HEK cells; assay type: cell-based
Method: Twenty-four hours later, ˜3k transduced cells were plated into each well of a 96w plate and cultured in 100 μL of drug-free growth media (DMEM+10% FBS, 1% p-s, 1% Glutamax).
Killing efficiency was calculated by taking the average mCherry area quantified by the incucyte in the drug treated sample divided by the mCherry area quantified in the ND conditions of the same transduced population and subtracting that fraction from 1. 95% KE was defined as complete killing by previous studies with this same mCherry reporter being treated with Puromycin, a toxic drug that results in complete killing of HEK293T cells within 48 hours of application.

primary T cells = experiment: Killing assay of safety kill switch in transduced primary T cells; assay type: cell-based
Method: Primary T cells isolated from a donor were thawed and stimulated with Dynabeads for 24 hours. Next, ERT2*mut81-Casp9-IRES-RFP (SB07351, prepared as lentivirus) was transduced into the T cells. Two days post transduction, cell media were replaced with T Cell media containing IL-2 to promote expansion. 1 week post transduction, cells were quantified for transduction efficiency (Safety kill switch transduction was tracked by expression of RFP tag) by flow cytometry and then loaded into incucyte for quantification of killing efficiency.
• D0-D1: Expansion of cells in drug free T cell media (with IL-2) • D1-onward: Drug free T cell media (with IL-2) was exchanged with media containing indicated drug conditions (as well as IL-2) • Killing efficiency was calculated by the following formula:
1−(RFP expression of cells in drug treated conditions)/(RFP expression of transduced cells in the No Drug condition)

HEK293T cells [5] = experiment: Suicide-switch assay, killing efficiency by incucyte; assay type: cell-based; settings: for killing efficiency: 48 hours
Method: A 24-well dish was seeded with 25,000 Lent-X HEK293T cells (Takara, Catalog #: 632180). The next day, the cells were transduced with 25,000 pg of virus for constructs SB07351-SB07354: ERT2mut-casp9 constructs tagged with mCherry to track successfully transduced cells in a population. The constructs each take the form ERT2*mut-Casp9-IRES-RFP (SB07351=mut81; SB07352=mut88; SB07353=mut63; SB07354=mut41). The next day, transduced cells were split into a 96-well plate with ˜5,000 cells in each well and loaded into an incucyte to quantify cell expansion via images every 2 hours detecting mCherry expression. Media was exchanged 24 hours later with new media with indicated concentration of 4-OHT or no drug added. Cells continued to be imaged by the incucyte every 2 hours for 48 hours post exchange of media.
Cell death was quantified via detection of suicide-switch linked mCherry expression using the following formula:
Killing efficiency=100−((mCherry expression in drug treated population)/(mCherry expression in ND population)) [NOTE: mCherry background prevents 100% KE from being calculated; >95% killing efficiency is considered complete killing in this assay]

Molecule: CC/C(=C(\c1ccc(O)cc1)c1ccc(OCCN(C)C)cc1)c1ccccc1 [Construct 4-OHT, 4-hydroxytamoxifen]
- estimated concentration in the brain, tissue, organs, and solid tumors [1]: 0.4 nM
- estimated concentration in the serum [1]: 0.04 nM

Molecule: CC/C(=C(\c1ccc(O)cc1)c1ccc(OCCNC)cc1)c1ccccc1 [endoxifen]
- estimated concentration in the brain, tissue, organs, and solid tumors [1]: 2.5 nM
- estimated concentration in the serum [1]: 0.25 nM

Molecule: CC/C(=C(\c1ccccc1)c1ccc(OCCN(C)C)cc1)c1ccccc1 [tamoxifen]
- average peak plasma concentration ([1]; typical clinical dose of tamoxifen): approximately 40 ng/ml

B1: wild-type ERT2: ERT2 with G400V/M543A/L544A/V595A, SEQ ID NO: 3; benchmark construct (protein)
chain: SAGDMRAANLWPSPLMIKRSKKNSLALSLTADQMVSALLDAEPPILYSEYDPTRPFSEASMMGLLTNLADRELVHMINWAKRVPGFVDLTLHDQVHLLECAWLEILMIGLVWRSMEHPVKLLFAPNLLLDRNQGKCVEGMVEIFDMLLATSSRFRMMNLQGEEFVCLKSIILLNSGVYTFLSSTLKSLEEKDHIHRVLDKITDTLIHLMAKAGLTLQQQHQRLAQLLLILSHIRHMSNKGMEHLYSMKCKNVVPLYDLLLEAADAHRLHAPTSRGGASVEETDQSHLATAGSTSSHSLQKYYITGEAEGFPATA
- 4-OHT concentration at which mCherry reporter expression is activated (U87MG: 1066 cells): about 25 nM
- endoxifen concentration at which mCherry reporter expression is activated (U87MG: 1066 cells): about 25 nM

B2: SB09642: ERT2 mutant transcriptional switch construct pSFFV: ZF10-1_p65_ERT2 domain (Table 23) (protein)
chain: B1 chain with L103M, L128V, N132D, M140L, S182P, H243L
modifications: ERT2 domain of ZF10-1_p65_ERT2 construct
- fold activation and induced mCherry levels compared to WT (SB03422) [2]: highest fold activation and induced mCherry levels
- endoxifen concentration at which IL-12 expression is induced [3]: 0.1 nM

B3: SB09652: ERT2 mutant transcriptional switch construct pSFFV: ZF10-1_p65_ERT2 domain (Table 23) (protein)
chain: B1 chain with L73I, L110V, N132D, M140L, S182P, M236A, H243L
modifications: ERT2 domain of ZF10-1_p65_ERT2 construct
- fold activation and induced mCherry levels compared to WT (SB03422) [2]: highest fold activation and induced mCherry levels
- endoxifen concentration at which IL-12 expression is induced [3]: 0.1 nM

B4: SB09657: ERT2 mutant transcriptional switch construct pSFFV: ZF10-1_p65_ERT2 domain (Table 23) (protein)
chain: B1 chain with L73I, L103M, N132D, S182P, H243L
modifications: ERT2 domain of ZF10-1_p65_ERT2 construct
- fold activation and induced mCherry levels compared to WT (SB03422) [2]: highest fold activation and induced mCherry levels
- endoxifen concentration at which IL-12 expression is induced [3]: 0.1 nM

B5: SB09626: ERT2 mutant transcriptional switch construct pSFFV: ZF10-1_p65_ERT2 domain (Table 23) (protein)
chain: B1 chain with L73I, N132D, M140L, S182P, H243L
modifications: ERT2 domain of ZF10-1_p65_ERT2 construct
- fold activation and induced mCherry levels compared to WT (SB03422) [2]: highest fold activation and induced mCherry levels
- endoxifen concentration at which IL-12 expression is induced [3]: 0.1 nM

B6: SB07351: suicide-switch construct ERT2*mut-Casp9-IRES-RFP with mut81 (protein)
chain: AGDMRAANLWPSPLMIKRSKKNSLALSLTADQMVSALLDAEPPILYSEYDPTRPFSEASMMGLLTNLADRELVHMINWAKRVPGFVDLTLHDQVHLLECAWMEILMIGVVWRSMEHPVKLLFAPNLLLDRDQGKCVEGLVEIFDMLLATSSRFRMMNLQGEEFVCLKSIILLNSGVYTFLPSTLKSLEEKDHIHRVLDKITDTLIHLMAKAGLTLQQQHQRLAQLLLILSHIRHMSNKGMELLYSMKCKNVVPLYDLLLEAADAHRLHAPTSRGGASVEETDQSHLATAGSTSSHSLQKYYITGEAEGFPAT
- killing efficiency and rate compared to the WT ERT2 safety switch (HEK293T cells [4]; 0.25 nM endoxifen and 0.04 nM 4-OHT, 2.5 nM endoxifen+0.4 nM 4-OHT): greater killing efficiency, and at a faster rate
- sensitivity to Estradiol (HEK293T cells [4]; 2.5 nM estradiol, long exposure times): modest activity at late time points
- time to complete killing (primary T cells; 2.5 nM Endoxifen & 0.4 nM 4-OHT): ≤ 48 h
- cell killing without inducer (primary T cells; absence of the small molecule inducer cocktail): did not induce cell killing
- sensitivity to Estradiol (primary T cells; day 5, Estradiol 2.2 pM): insensitivity
- killing efficiency (primary T cells; day 5, endoxifen 1 pM and higher): >= 95%
- killing efficiency (primary T cells; day 5, endoxifen as low as 0.001 pM): Strong killing efficiency
- sensitivity to Estradiol (primary T cells; over time, 2.2 pM Estradiol): insensitive
- killing efficiency (HEK293T cells [5]; 0.001 pM of 4-OHT): ~80%
- killing efficiency (HEK293T cells [5]; down to 0.01 pM of 4-OHT): > 95%
- concentration of efficient killing, fold lower than the Ctrough of 4-OHT in humans (HEK293T cells [5]; humans taking FDA approved daily dose of Tamoxifen): 400 ×
